Key:
[1] = molecular target: H4K16ac nucleosome (Xenopus | not stated); assay: native gel or EMSA
[2] = molecular target: unmodified nucleosome (Xenopus); assay: native gel or EMSA

Kd [1]: 83.3 nM | Kd [2]: 70.8 nM
Substance: catalytic domain of yeast Dot1 (residues 158 to 582) (from UniProt Q04089 158-582) (domain or fragment)

— article PMC8279004
